Results as given in US20250122298A1 (published 2025).

How the values were obtained:
[1] = biological target: T1, recombinant cynomolgus TfR-1 (cynomolgus, UniProt H9EXL1 89-760); assay: ELISA
T1 chain: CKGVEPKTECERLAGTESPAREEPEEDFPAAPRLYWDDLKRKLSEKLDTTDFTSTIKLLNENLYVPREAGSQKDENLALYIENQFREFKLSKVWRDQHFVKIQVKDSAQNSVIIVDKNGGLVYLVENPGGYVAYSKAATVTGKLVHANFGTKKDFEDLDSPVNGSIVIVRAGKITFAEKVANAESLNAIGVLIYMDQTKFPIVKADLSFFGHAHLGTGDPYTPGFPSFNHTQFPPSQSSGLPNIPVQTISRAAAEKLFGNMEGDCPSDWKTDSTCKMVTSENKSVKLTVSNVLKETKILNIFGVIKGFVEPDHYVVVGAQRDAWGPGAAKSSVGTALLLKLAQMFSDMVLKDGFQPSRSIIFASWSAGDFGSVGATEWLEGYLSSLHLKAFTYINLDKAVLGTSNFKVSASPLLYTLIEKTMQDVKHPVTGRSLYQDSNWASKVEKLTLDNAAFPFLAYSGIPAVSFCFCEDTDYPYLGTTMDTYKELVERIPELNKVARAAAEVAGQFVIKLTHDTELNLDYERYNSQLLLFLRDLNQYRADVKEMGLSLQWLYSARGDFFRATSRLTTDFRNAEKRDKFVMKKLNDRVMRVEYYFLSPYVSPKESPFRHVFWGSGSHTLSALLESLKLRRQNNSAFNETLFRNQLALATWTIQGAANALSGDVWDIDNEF

[2] = biological target: recombinant human TfR-1 (human, UniProt P02786 89-760); assay: ELISA

B1: R2D4 (Fc fusion)
chain: ARVDQTPQTATKETGESLTINCVLRDSNCALSSTYWYRKKSGSTNEENISKGGRKYVETVESGSKSFSLKINDLTVEDSGTYRCNVVGTWCMSWRDVSGDGTVVTVNA
Which EC50 [1] does the source give for B1 here?
Its EC50 is 3 nM.

What about the EC50 [2] of the same binder?
The EC50 was 4.1 nM.
